# Reference: US20250043302A1, “MUTATED HYDROXYPHENYLPYRUVATE DIOXYGENASE POLYPEPTIDE, AND CODING GENE AND USE THEREOF” (BEIJING DABEINONG BIOTECHNOLOGY CO., LTD., priority 2021, published 2025)
# B1: NtHPPD-02: nucleotide sequence encoding wild-type Nicotiana tabacum HPPD; vector DBN11750 (nucleic acid)
# DNA: ATGGGGAAGCTGGAAACCGTCACTACCACCTCGGCGGCGGCTGCTGATGATTCATCGGAATTAACAACCAACTTCAAGTTGGTTGGTTTCAAAAATTTCATCAGAACAAACCCAAGGTCTGATTTCTTCTCCGTCAAGAGCTTCCACCACATTGAATTCTGGTGCGGTGACGCAACTAACACAGCGCGCCGCTTCTCATGGAGCCTAGGGATGCCAATTGCAGCTAAGAGTGATCTTTCAACAGGAAACAGCGTGCACGCCTCCTACCTCCTCCGGCCCGTAAGCGGTTCTTTACAGTTCCTGTTTACAGCACCATATTCACCTTCTATTTCGACTCCTAGTTCAGCTGCAATCCCATCTTTTTCCACATCTACACATAGGTCTTTCACTACAACACATGGACTGGGTGTTCGTGCCGTCGCCCTCGAGGTGGAGAATGCTTATACTGCCTTCAGTGCTTCTGTCTCCAGAGGCGCCAAGCCAATGTTTGAACCTGTGACAATTGATGAACAAGTAGCAATGGCTGAGGTTCATTTGTACGGCGATGTTGTGCTGCGATTTGTTTCTTATCTCAAGGACGCCGACAACCTGGTCTTCCTGCCGGGGTTTGAGGCCATGGATGAAACTGCTAGTTACAAAGAACTTGATTATGGAATACGGCGTTTGGATCATGCTGTGGGCAATGTTCCAGAACTCGGCCCGGTAGTTGATTACATCAAGAGGTTTACTGGATTTCATGAATTTGCAGAGTTTACCGCTGAAGATGTGGGAACTGCGGAAAGTGGGCTAAACTCCATGGTTCTTGCGAACAATGATGAGACTGTGCTCCTCCCTCTGAATGAGCCTGTTTATGGCACCAAAAGAAAATCTCAGATACAAACATATCTTGAGCATAATGAAGGAGCTGGGGTGCAGCACCTTGCTCTTGTTACTGAAGACATCTTTAAGACTTTGACAGAGATGAGGAAGAGAAGTGGAGTTGGAGGTTTTGAGTTCATGCCTTCCCCCCCGCCGACCTACTACAAGAATTTGAAGAACAGGGCTGGTGACGTCCTCTCAGACGAGCAGATTTTGGCTTGTGAGGAGCTTGGCATCTTGGTAGACCGGGACGACCAGGGGACGCTTCTCCAAATTTTCACAAAACCCGTCGGGGACCGCCCCACCATATTTATTGAGATCATCCAGAGGATAGGCTGCATGCTTAAAGATGGAAAAGGTCAAGTGTACCAGAAGGGTGGTTGTGGTGGGTTTGGCAAAGGAAATTTTTCTGAGCTGTTCAGAAGCATAGAAGAATATGAGAAGACACTGGAAGCAAAACAAGCAAATCAAGTTGCGGCCGCGTGA
# modifications: NtHPPD-02 Nucleotide Sequence
# notes: vector DBN11750
# B2: GmHPPDm-F383W-02: nucleotide sequence encoding Glycine max HPPD with F383W; vector DBN11748 (nucleic acid)
# DNA: ATGCCAATGTACACACCATCGCTCTCCGCCCCTTCTTCCAACCATATTCAGCCATCCGTGACTCTGCCTCTCTACATCACAACCACCAAGTTGAACCTGAAGCAGCAGCACCATACGACTCCTATGCCTATACCCATGTGCAATGAGATCCAAGCACAGGCTCAGGCACAAGCTCAACCCGGATTCAAACTCGTGGGATTCAAGAACTTCGTCCGTACCAATCCAAAATCTGACCGCTTCCAGGTGAACAGATTCCACCACATAGAGTTTTGGTGTACTGATGCAACGAATGCTTCGAGGAGGTTTTCATGGGGCTTAGGCATGCCGATTGTAGCAAAGTCAGACCTTTCTACAGGGAACCAAATTCATGCAAGCTATCTGCTCCGCTCAGGTGATTTGTCTTTCTTGTTCTCAGCTCCATATTCTCCATCATTATCTGCTGGGTCATCAGCAGCATCTAGTGCGTCGATCCCTAGCTTTGATGCCGCCACCTGCCTCGCCTTCGCCGCCAAACATGGATTTGGTGTTCGCGCCATTGCTCTTGAGGTTGCCGATGCCGAGGCTGCTTTTAGCGCCTCCGTCGCCAAGGGAGCTGAGCCTGCGTCACCTCCTGTTCTTGTTGATGATCGAACTGGTTTTGCTGAAGTGCGTCTTTACGGCGACGTGGTGCTCAGATATGTTAGTTACAAGGATGCTGCTCCTCAAGCGCCGCACGCTGATCCTTCAAGATGGTTTCTTCCGGGGTTTGAGGCCGCTGCTAGTTCATCTTCCTTCCCGGAGTTGGATTACGGCATACGGCGGCTTGACCATGCTGTCGGCAATGTTCCTGAGCTTGCTCCGGCGGTACGGTACTTGAAAGGTTTCTCCGGGTTCCATGAATTTGCAGAGTTCACGGCGGAAGATGTTGGAACAAGTGAAAGCGGATTGAATTCTGTTGTTTTGGCCAACAACAGTGAAACTGTTCTGCTCCCCCTCAATGAACCAGTTTATGGCACAAAGCGCAAGAGCCAGATTGAAACATATCTCGAGCACAATGAAGGCGCCGGCGTCCAGCATCTTGCTTTGGTGACTCATGATATCTTCACAACACTTAGGGAGATGAGGAAGAGGAGTTTCCTCGGCGGGTTTGAATTCATGCCCAGTCCCCCGCCGACCTACTATGCAAATCTGCACAACAGGGCTGCAGATGTGCTGACTGTAGACCAGATCAAGCAATGTGAAGAACTTGGAATTTTAGTGGATAGAGACGACCAAGGTACACTACTTCAAATATTCACCAAACCAGTCGGTGACAGACCAACAATTTGGATCGAGATTATACAAAGAATTGGATGCATGGTCGAGGATGAAGAAGGGAAGGTGTACCAGAAGGGAGCATGTGGTGGTTTTGGGAAAGGAAATTTTTCTGAGCTGTTTAAATCCATCGAGGAATATGAGAAAACCTTAGAAGCTAAAAGAACTGCATGA
# modifications: GmHPPDm-F383W-02 Nucleotide Sequence
# notes: vector DBN11748
# Experiments:
# Format in all cases: in vivo
# [1] = tested on: Arabidopsis thaliana T1 plants; test: Topramezone tolerance of transgenic Arabidopsis thaliana T1 plants (spray, bleached leaf area grade, damage score); settings: 7 DAT, Table 4; for Classification and statistics of the grade of pesticide damage: Grade 0 / Classification and statistics of the grade of pesticide damage: Grade 1 / Classification and statistics of the grade of pesticide damage: Grade 2 / Classification and statistics of the grade of pesticide damage: Grade 3: number of plants; for Scores: pesticide damage score 0-100
# How it was run: (§1)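 T1 transformants selected by glufosinate; 18-day-old plants, with empty-vector and wild-type controls, sprayed with topramezone (25–200 g ai/ha), isoxaflutole (35–280 g ai/ha) or mesotrione (52.5–420 g ai/ha), water as 0×. Bleached leaf area fraction scored at 7 DAT as grades 0–3.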
# [2] = tested on: Arabidopsis thaliana T1 plants; test: Isoxaflutole tolerance of transgenic Arabidopsis thaliana T1 plants (spray, bleached leaf area grade, damage score); design: Scores (pesticide damage): scale not given here; settings: spray, Arabidopsis thaliana T1 plants; for Classification and statistics of the grade of pesticide damage: Grade 0 (number of plants) / Classification and statistics of the grade of pesticide damage: Grade 1 (number of plants) / Classification and statistics of the grade of pesticide damage: Grade 2 (number of plants) / Classification and statistics of the grade of pesticide damage: Grade 3 (number of plants): 16 plants
# How it was run: as §1
# [3] = tested on: Arabidopsis thaliana T1 plants; test: Mesotrione tolerance of transgenic Arabidopsis thaliana T1 plants (spray, bleached leaf area grade, damage score); design: Scores: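 damage score 0-100 computed as Σ(N×S)/(T×M)×100 over grades 0-3 with higher meaning more damage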; settings: Arabidopsis thaliana T1 plants; for Grade 0 (classification and statistics of the grade of pesticide damage; number of plants) / Grade 1 (classification and statistics of the grade of pesticide damage; number of plants) / Grade 2 (classification and statistics of the grade of pesticide damage; number of plants) / Grade 3 (classification and statistics of the grade of pesticide damage; number of plants): 16 plants
# How it was run: as §1
# [4] = isoxaflutole 35 g ai/ha (0.5x field concentration)
# [5] = isoxaflutole 70 g ai/ha (1x field concentration)
Molecule,Classification and statistics of the grade of pesticide damage: Grade 0 ([1]; topramezone 25 g ai/ha (1×)),Classification and statistics of the grade of pesticide damage: Grade 1 ([1]; topramezone 25 g ai/ha (1×)),Classification and statistics of the grade of pesticide damage: Grade 2 ([1]; topramezone 25 g ai/ha (1×)),Classification and statistics of the grade of pesticide damage: Grade 3 ([1]; topramezone 25 g ai/ha (1×)),Classification and statistics of the grade of pesticide damage: Grade 0 ([1]; topramezone 100 g ai/ha (4×)),Classification and statistics of the grade of pesticide damage: Grade 1 ([1]; topramezone 100 g ai/ha (4×)),Classification and statistics of the grade of pesticide damage: Grade 2 ([1]; topramezone 100 g ai/ha (4×)),Classification and statistics of the grade of pesticide damage: Grade 3 ([1]; topramezone 100 g ai/ha (4×)),Scores ([1]; topramezone 25 g ai/ha (1×)),Scores ([1]; topramezone 100 g ai/ha (4×)),Resistance evaluation ([1]; topramezone 25 g ai/ha (1×)),Resistance evaluation ([1]; topramezone 100 g ai/ha (4×)),"Resistance evaluation [2, 4]","Scores (pesticide damage) [2, 4]","Classification and statistics of the grade of pesticide damage: Grade 0 (number of plants) [2, 4]","Classification and statistics of the grade of pesticide damage: Grade 1 (number of plants) [2, 4]","Classification and statistics of the grade of pesticide damage: Grade 2 (number of plants) [2, 4]","Classification and statistics of the grade of pesticide damage: Grade 3 (number of plants) [2, 4]","Resistance evaluation [2, 5]","Scores (pesticide damage) [2, 5]",also measured
B1,0,0,0,16,0,0,0,16,100,100,non-resistant (non-resistant plants (scores 68-100)),non-resistant (non-resistant plants (scores 68-100)),Non-resistant,100,0,0,0,16,Non-resistant,100,"Classification and statistics of the grade of pesticide damage: Grade 0 (number of plants) [2, 5]: 0; Classification and statistics of the grade of pesticide damage: Grade 1 (number of plants) [2, 5]: 0; Classification and statistics of the grade of pesticide damage: Grade 2 (number of plants) [2, 5]: 0; Classification and statistics of the grade of pesticide damage: Grade 3 (number of plants) [2, 5]: 16; Resistance evaluation ([3]; mesotrione 52.5 g ai/ha): Non-resistant; Scores ([3]; mesotrione 52.5 g ai/ha): 100; Grade 0 (classification and statistics of the grade of pesticide damage; number of plants) ([3]; mesotrione 52.5 g ai/ha): 0; Grade 1 (classification and statistics of the grade of pesticide damage; number of plants) ([3]; mesotrione 52.5 g ai/ha): 0; Grade 2 (classification and statistics of the grade of pesticide damage; number of plants) ([3]; mesotrione 52.5 g ai/ha): 0; Grade 3 (classification and statistics of the grade of pesticide damage; number of plants) ([3]; mesotrione 52.5 g ai/ha): 16; Resistance evaluation ([3]; mesotrione 105 g ai/ha): Non-resistant; Scores ([3]; mesotrione 105 g ai/ha): 100; Grade 0 (classification and statistics of the grade of pesticide damage; number of plants) ([3]; mesotrione 105 g ai/ha): 0; Grade 1 (classification and statistics of the grade of pesticide damage; number of plants) ([3]; mesotrione 105 g ai/ha): 0; Grade 2 (classification and statistics of the grade of pesticide damage; number of plants) ([3]; mesotrione 105 g ai/ha): 0; Grade 3 (classification and statistics of the grade of pesticide damage; number of plants) ([3]; mesotrione 105 g ai/ha): 16"
B2,0,3,9,4,0,0,0,16,69,100,non-resistant (non-resistant plants (scores 68-100)),non-resistant (non-resistant plants (scores 68-100)),Non-resistant,81,0,0,9,7,Non-resistant,100,"Classification and statistics of the grade of pesticide damage: Grade 0 (number of plants) [2, 5]: 0; Classification and statistics of the grade of pesticide damage: Grade 1 (number of plants) [2, 5]: 0; Classification and statistics of the grade of pesticide damage: Grade 2 (number of plants) [2, 5]: 0; Classification and statistics of the grade of pesticide damage: Grade 3 (number of plants) [2, 5]: 16; Resistance evaluation ([3]; mesotrione 52.5 g ai/ha): Non-resistant; Scores ([3]; mesotrione 52.5 g ai/ha): 100; Grade 0 (classification and statistics of the grade of pesticide damage; number of plants) ([3]; mesotrione 52.5 g ai/ha): 0; Grade 1 (classification and statistics of the grade of pesticide damage; number of plants) ([3]; mesotrione 52.5 g ai/ha): 0; Grade 2 (classification and statistics of the grade of pesticide damage; number of plants) ([3]; mesotrione 52.5 g ai/ha): 0; Grade 3 (classification and statistics of the grade of pesticide damage; number of plants) ([3]; mesotrione 52.5 g ai/ha): 16; Resistance evaluation ([3]; mesotrione 105 g ai/ha): Non-resistant; Scores ([3]; mesotrione 105 g ai/ha): 100; Grade 0 (classification and statistics of the grade of pesticide damage; number of plants) ([3]; mesotrione 105 g ai/ha): 0; Grade 1 (classification and statistics of the grade of pesticide damage; number of plants) ([3]; mesotrione 105 g ai/ha): 0; Grade 2 (classification and statistics of the grade of pesticide damage; number of plants) ([3]; mesotrione 105 g ai/ha): 0; Grade 3 (classification and statistics of the grade of pesticide damage; number of plants) ([3]; mesotrione 105 g ai/ha): 16"
